In experiment [1] the target is germline-reverted VRC01. As to the kind of experiment: BLI; Octet Red, 29°C, shaking 500 r.p.m.; germline-reverted VRC01 IgG immobilised on anti-AHC biosensors (40 μg/ml in PBS); Env gp140 trimers in 2-fold dilution series (4 μM to >250 nM) in kinetic buffer (1X PBS pH7.4, 0.1% BSA, 0.02% Tween 20, 0.05% NaN3); 300 s association, 600 s dissociation; 1:1 binding model; relative apparent affinities. (Biolayer interferometry detects binding as a change in optical thickness at a sensor tip.)

Experiment [2] deals with HIV-1 426c.TM4 (S278R.G471S.N460D.N463D) Env on Env-pseudotyped virus produced in 293S GnT1- cells (HIV-1).
The target of experiment [3] is HIV-1 426c Env on Env-pseudotyped virus produced in 293S GnT1- cells (HIV-1).
The target in experiment [4] is HIV-1 426c.DM (N460D.N463D) Env on Env-pseudotyped virus produced in 293S GnT1- cells (HIV-1).
Experiment [5] addresses HIV-1 426c.TM4 (S278R.G471S.N460D.N463D) Env on Env-pseudotyped virus produced in 293T cells (HIV-1).
Experiment [6] deals with HIV-1 426c.TM1 (N276D.N460D.N463D) Env on Env-pseudotyped virus produced in 293S GnT1- cells (HIV-1).
For experiment [7], the target named is HIV-1 426c.SM (N276D) Env on Env-pseudotyped virus produced in 293S GnT1- cells (HIV-1).
For experiment [8], the target named is HIV-1 TRO.11 Env on Env-pseudotyped virus produced in 293T cells (HIV-1).
For experiment [9], the target named is HIV-1 TRO.11 Env on Env-pseudotyped virus produced in 293S GnT1- cells (HIV-1).
Experiment [10] deals with HIV-1 426c.SM (N276D) Env on Env-pseudotyped virus produced in 293T cells (HIV-1).
The target of experiment [11] is HIV-1 426c.TM1 (N276D.N460D.N463D) Env on Env-pseudotyped virus produced in 293T cells (HIV-1).
The target of experiment [12] is HIV-1 426c Env on Env-pseudotyped virus produced in 293T cells (HIV-1).
In experiment [13] the target is HIV-1 426c.DM (N460D.N463D) Env on Env-pseudotyped virus produced in 293T cells (HIV-1).

By koff is commonly meant the first-order rate constant of dissociation. Broadly, the kon is the second-order rate constant of association.

With “426c N276D gp140 (293T), uncleaved soluble trimer (domain or fragment)”, in [1], the Kd stood at 58.8 nM, the koff was determined as 0.000193 s⁻¹ and the kon came to 9010 M⁻¹ s⁻¹.
“426c N276D gp140 (GnT1-), uncleaved soluble trimer (domain or fragment)”: in experiment [1], the Kd was 178 nM, the koff was 0.000739 s⁻¹ and the kon was determined as 11100 M⁻¹ s⁻¹.
The corresponding values for “TM1 gp140 (293T), uncleaved soluble 426c trimer (domain or fragment)” are 29.4 nM, 0.000148 s⁻¹ and 5030 M⁻¹ s⁻¹.
For “TM1 gp140 (GnT1-), uncleaved soluble 426c trimer (domain or fragment)”, in experiment [1], the Kd worked out at 42.6 nM, the koff was 0.000229 s⁻¹ and the kon is 5370 M⁻¹ s⁻¹.
For the substance germline-reverted 3BNC117 (antibody), the IC50 of neutralization of the Env-pseudotyped virus in TZM-bl cells in experiment [2], in experiment [3], in experiment [4], in [5], in [6] and in experiment [7] was greater than 25 µg/mL throughout.
Consider germline-reverted 12A12 (antibody), for which the IC50 of neutralization of the Env-pseudotyped virus in TZM-bl cells in experiment [2] was 0.63 µg/mL; in experiment [3], greater than 25 µg/mL; in [4] it was greater than 25 µg/mL; in [5], greater than 25 µg/mL; in [6], greater than 25 µg/mL; in experiment [7], greater than 25 µg/mL.
germline-reverted VRC01 (antibody): the IC50 of neutralization of the Env-pseudotyped virus in TZM-bl cells is greater than 50 µg/mL in experiment [8]; greater than 50 µg/mL in [9]; 0.36 µg/mL in [2]; greater than 50 µg/mL in experiment [3]; greater than 50 µg/mL in experiment [10]; greater than 50 µg/mL in experiment [4]. For the same substance, the IC50 of neutralization of the Env-pseudotyped virus in TZM-bl cells was greater than 50 µg/mL in [11]; greater than 50 µg/mL in [12]; greater than 25 µg/mL in experiment [5]; greater than 50 µg/mL in experiment [13]; 1.37 µg/mL in experiment [6]; 0.99 µg/mL in experiment [7].
As for germline-reverted VRC03 (antibody), the IC50 of neutralization of the Env-pseudotyped virus in TZM-bl cells in experiment [2], in experiment [3], in [4], in experiment [5], in experiment [6] and in experiment [7] was greater than 25 µg/mL throughout.
Turning to germline-reverted VRC04 (antibody), the IC50 of neutralization of the Env-pseudotyped virus in TZM-bl cells in [2], in experiment [3], in [4], in experiment [5], in experiment [6] and in experiment [7] was greater than 25 µg/mL in each case.
On to germline-reverted VRC07 (antibody), for which the IC50 of neutralization of the Env-pseudotyped virus in TZM-bl cells in [2] is 1.7 µg/mL; in [3], greater than 25 µg/mL; in experiment [4] it was greater than 25 µg/mL; in experiment [5] it was greater than 25 µg/mL; in [6] it was 1.6 µg/mL; in experiment [7] it was 0.76 µg/mL.
Turning to germline-reverted VRC18b (antibody), the IC50 of neutralization of the Env-pseudotyped virus in TZM-bl cells was 17.3 µg/mL in [2]; greater than 25 µg/mL in experiment [3]; greater than 25 µg/mL in [4]; greater than 25 µg/mL in [5]; 23 µg/mL in [6]; greater than 25 µg/mL in [7].
As for germline-reverted VRC20 (antibody), the IC50 of neutralization of the Env-pseudotyped virus in TZM-bl cells in [2] is 0.03 µg/mL; in [3] it was greater than 25 µg/mL; in [4], greater than 25 µg/mL; in experiment [5], 2.39 µg/mL; in experiment [6] it was 4.6 µg/mL; in experiment [7] it was 10.3 µg/mL.
germline-reverted VRC23 (antibody): the IC50 of neutralization of the Env-pseudotyped virus in TZM-bl cells in experiment [2], in [3], in [4], in experiment [5], in experiment [6] and in [7] was greater than 25 µg/mL throughout.
